Measured values reported in PMC12004354.

Legend:
[1] = biological target: T1, human recombinant C-reactive protein (human), P02741; experiment: native MS; native capillary zone electrophoresis-MS (nCZE-MS) with surface-induced dissociation (SID); LPA-coated capillary, 20 kV; BGE 50 mM ammonium acetate pH around 6.8 (normal charge) or 40 mM AmAc with 10 mM TEAA (charge-reducing); 0.5 uM of each complex; precursors 15+/11+ SA and 23+/17+ CRP isolated; conditions: remark: other sources report otherwise
T1 chain: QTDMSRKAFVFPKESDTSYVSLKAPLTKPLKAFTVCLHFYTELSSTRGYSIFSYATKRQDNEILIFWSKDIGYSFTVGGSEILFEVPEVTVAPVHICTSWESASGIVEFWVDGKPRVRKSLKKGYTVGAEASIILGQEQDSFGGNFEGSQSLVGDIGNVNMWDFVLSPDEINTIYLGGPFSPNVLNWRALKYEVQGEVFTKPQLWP

[2] = biological target: T1, human recombinant C-reactive protein …; experiment: native MS; direct infusion native MS with SID; 50 mM ammonium acetate, for charge reduction 20% (v/v) 50 mM TEAA added; conditions: remark: other sources report otherwise

B1: human recombinant C-reactive protein, P02741 19-224 (natural protein)
chain: QTDMSRKAFVFPKESDTSYVSLKAPLTKPLKAFTVCLHFYTELSSTRGYSIFSYATKRQDNEILIFWSKDIGYSFTVGGSEILFEVPEVTVAPVHICTSWESASGIVEFWVDGKPRVRKSLKKGYTVGAEASIILGQEQDSFGGNFEGSQSLVGDIGNVNMWDFVLSPDEINTIYLGGPFSPNVLNWRALKYEVQGEVFTKPQLWP
B1 gave a stoichiometry N [1] of 5 and a stoichiometry N [2] of 5.
